Where “and” joins values, the source holds several entries; their conditions need not be identical. Equal values may be shown once. Marks after values point to notes of the source that are not given here.

Substrate in data set [1]: O=C(O)[C@H]1O[C@@H](Oc2ccc([N+](=O)[O-])cc2)[C@H](O)[C@@H](O)[C@@H]1O
Kind of data set: purified protein, by the assay type. Conditions: other: pNPG as substrate.

Substrate in data set [2]: O=C(O)[C@H]1O[C@@H](Oc2ccc([N+](=O)[O-])cc2)[C@H](O)[C@@H](O)[C@@H]1O
The data set can be described thus: purified protein, by the assay type. It counts as biochemical, Ruminococcus gnavus. The note with it: other: pNPG as substrate, optimal pH 6.5, apparent value estimated at low pNPG concentrations, 37.0 °C.

B1: Faecalibacterium prausnitzii GUS (FpGUS) (Faecalibacterium duncaniae) (protein)
chain: MNRSLLYPRATTTRRLIGLDGMWRFSFDPESKGVEAGWALDLPSSLSMPVPASFCDLFTDKASREYCGDFWYETSFFVPAEWSGWDIVLRFGSVTHRARVFVNGVEVAQHEGGFLPFDATVTNIVRYNQFNKLSVLANNELSETMLPAGTTCTLADGRKIAAPYFDFYNYAGIHRPVWLMALPKERVLDYSTRYRLTETGAEIDYTVSTNGPHPVTVELYDGTTRVAESSGTTGTLVVKNARLWNVHAAYLYDLVIRIHEGSAVVDEYLDRIGIRTFEIRHGRFLLNGSPVYLRGFGRHEDADIRGRGLDLPTVKRDFELMKWIGANCFRTSHYPYAEEIYQMADEEGFLIIDEVPAVGFMQSTANFLAANQGNGRQQGFFEKETTPALLKNHKAALTDMIDRDKNHPSVIAWSLLNEPQCTSAGTEEYFKPLFELARRLDPQKRPRTYTVLMTSLPDTSKGQRFADFVSLNRYYGWYVLGGAGLADAEAAFHHEMDGWAKVLHGRPLIFTEYGTDNLSGAHKLPSVMWSAEYQNEYLEMTHAVFDHYDFVQGELVWNFADFQTTEGILRVDGNKKGIFTRQRQPKDAAYLFRKRWTTLPVDFKKRKK
Regarding B1, in data set [1] (optimal pH 6.0, 37 °C), the Km was 2200 ± 300 µM, the kcat worked out at 58 ± 4 s⁻¹ and the kcat/Km came out at 27000 ± 2000 M⁻¹ s⁻¹.

B2: Eubacterium eligens GUS (EeGUS) (Lachnospira eligens ATCC 27750) (protein)
chain: MLYPVLTQSRLLSDLSGVWDFKLDNGKGFEEKWYEKPLKDADTMPVPASYNDLKEGTDFRDHYGWVFYQRNISVPEYVKSQRIVLRCAAVTHYAMIYLNGKLICEHKGGFLPFEVELNDDLQDGDNLLTIAVNNVIDYTTLPVGGKANMMSGMMGGMGAGASDKPQNNPNFDFFNYCGITRPVKIYTTPETYINDITVTADIDFTKEEPSAVLNYNVEIKGKDYNNITCKVELFDEEGTKLSETEGSEGTFEISNVRLWQPLNAYLYKIKVTAGQDVYTLPYGVRSVRVDGTKFLINEKPFYFKGYGKHEDTFPNGRGINLPMNTKDISIMKWQHANSFRTSHYPYSEEMMRLCDEEGIVVIDETTAVGVNLQFGGGANFGGERIGTFDKEHGVQTQEHHKDVIRDLISRDKNHACVVMWSIANEPDSAAEGAYDYFKPLYDLARELDPQKRPCTLVSVQGTTADTDCSSQLSDVICLNRYYGWYFGGPDLEVSEIGLRKELSDWGKLGKPVMFTEYGADTVSGLHDTTSVMYTEEYQVEYYEMNNKVFDEFDFVVGEQAWNFADFATSQSLLRVQGNKKGLFTRDRKPKMVAHYFRNRWSTIPEFGYKTK
B2: in data set [1] (optimal pH 6.5, 37 °C), the Km is 223 ± 8 µM, the turnover number (kcat) was 120 ± 8 s⁻¹ and the kcat/Km was 540000 ± 20000 M⁻¹ s⁻¹.

B3: Streptococcus agalactiae GUS (SaGUS) (Streptococcus agalactiae 2603V/R) (protein)
chain: MLYPLLTKTRNTYDLGGIWNFKLGEHNPNELLPSDEVMVIPTSFNDLMVSKEKRDYIGDFWYEKVIEVPKVSEDEEMVLRFGSVTHQAKIYVDGVLVGEHKGGFTPFEVLVPECKYNNEKIKVSICANNVLDYTTLPVGNYSEIIQEDGSIKKKVRENFDFFNYAGVHRPLKLMIRPKNHIFDITITSRLSDDLQSADLHFLVETNQKVDEVRISVFDEDNKLVGETKDSRLFLSDVHLWEVLNAYLYTARVEIFVDNQLQDVYEENFGLREIEVTNGQFLLNRKPIYFKGFGKHEDTFINGRGLNEAANLMDLNLLKDMGANSFRTSHYPYSEEMMRLADRMGVLVIDEVPAVGLFQNFNASLDLSPKDNGTWNLMQTKAAHEQAIQELVKRDKNHPSVVMWVVANEPASHEAGAHDYFEPLVKLYKDLDPQKRPVTLVNILMATPDRDQVMDLVDVVCLNRYYGWYVDHGDLTNAEVGIRKELLEWQDKFPDKPIIITEYGADTLPGLHSTWNIPYTEEFQCDFYEMSHRVFDGIPNLVGEQVWNFADFETNLMILRVQGNHKGLFSRNRQPKQVVKEFKKRWMTIPHYHNKKNSVK
Consider B3, for which, in data set [1] (optimal pH 6.5, 37 °C), the Km was found to be 170 ± 10 µM; the kcat was 120 s⁻¹ and 122 s⁻¹; the kcat/Km turned out to be 720000 ± 30000 M⁻¹ s⁻¹.

B4: Lactobacillus rhamnosus GUS (LrGUS) (Lacticaseibacillus rhamnosus) (protein)
chain: METSLLYPVTNDQRTDQKLDGLWQFKFDEAGEGEKSGWETGFHDGVSMPVPASFNDFFTDKASREYTGDFWYSRNFFVPSAAKGKALFLRFDAVTHRATIFVNGKEIRTHEGGFLPFAADISEAVKYGAENTVVVKGNNELSREALPAGDTITLRNGKKMVRPFFDFYNYSGLNRSVHLLSLPQERVLDYTTTFALAGNDATVNYTVETNGDAPVTVSLADADGQVVATAQGKQGALQVQNAHLWQVRNAYLYTLTIQLGDDTQTPLDTYTDRIGIRTIKISGTDILVNDKPIYLKGFGRHEDSPFAGRAFDLNVEKKDFALMKWIGANSFRTSHYPYDEQVYKIADEEGFLLTDEVPAVGFKMAAAAFLGGLNQSFFKGPWLKKLHERHIDQIRDLIKRDKNHPSVLAWSLFNEPDTIDENAVPYFKQIFDESKDLDPQGRPRTFTLSEDDTIETSKVLDFPDFYMLNRYPGWYHFGGYQISDGEAGLRDEMDKWQKAGVKKPVVFTEFGADTEAGLHKLPSVMWTEEYQVEVLKMFSRVFDDYDFIKGEQVWNLADFQTVEGNMRVNGNKKGIFTRDRQPKAAAFFYHDRWNKLPLDYKAK
For the protein B4, in data set [1] (optimal pH 4.5, 37 °C), the Km came to 1500 ± 100 µM, the kcat came out at 10 ± 0.7 s⁻¹ and the kcat/Km amounted to 6700 ± 300 M⁻¹ s⁻¹.

B5: Bacteroides uniformis GUS (BuGUS) (Bacteroides uniformis str. 3978 T3 ii) (protein)
chain: QRQTQTINDSWKFLKGECTAAADSAFDDSKWTSIHLPHTWNTDAYTEKDYYRGTGWYRRQLTLPQGWKEKQIILRLDAAGKSATIYINGKNVGEHAGGYTACSFNITPFLSFDTPNTLAVCVDNARQDIAPISGDFTFFGGIYRDVWLTAVPNQHFNLTNHGSDGLFISTPQVSEEQATLSIRGEVKNDAPEKATLELTHTIYRPDGTLLQTLKKNIQLKAGETYAFSNEATPVLKPELWTPETPRLYRVETTLRNRKTKTLLDQSNHYTAFRWFRFDGDEGFFLNGKPYKLRGICRHQDQKPIGPALTDEMHRRDFLLMKEMGANFIRISHYPQDDALLEMCDKLGMLAWEEIPIIDIVPNTPGYGDNCERNLREMIRQHYNHPSIITWGYMNEILLVTQRKYKTEAELKPVLERTLALANRLERVLKEEDSTRISTMAFHGSNSYNETGLSKITDIVGWNLYQGWYGGDLTGFEKFLAQQHQNHPTHPMIVSEYGAGSDKRLHSLHPRAFDFSIEYQQKYLEHYLPVLEDTPYICGGTHWNFIDFSSALRDESMPRINNKGLVYADRTPKDVYHYYQAAWRKDIPVLHIASRDWTDRAGVQQGNAPVYLPVKIYTNLSEVELFIDGISLGKQKTENYTATFEVPFSNRNPFLFAQGNYQGKTVQDGLRINFTPIPACLDANNLKGLELAVNVGSQCFFTSDESQLTWLPDQPYAAGSWGYIGGKEGTAQTEIQNTADGPLFQTLRNEIEGYRFDAPQGVYEIELLFTDIFRRNAGIAYQLDRNGQQENRESTFGISINGEVVEESLSPCKESGYFRALRKKYYITNDKEYIDIRFHSTSGTCFLNGIKLRNIY
For B5, in data set [1] (optimal pH 5.5, 37 °C), the Km turned out to be 540 ± 60 µM, the kcat is 37 ± 2 s⁻¹ and the catalytic efficiency (kcat/Km) is 71000 ± 6000 M⁻¹ s⁻¹.

B6: Ruminococcus gnavus GUS (RgGUS) (Mediterraneibacter gnavus) (protein)
chain: MLEYSELYPIQNGHRMMQSLDGMWKFQFDPEEIGEKSGWENGLPAPVSMPVPSSFADFFTDHKERDYCGDFWYETEFYLPAEWRNKKIWLRFGSITHRGTVYCNGMEITSHEGGFLPVLADISTVAKPGQVNQVVVKINNELNETSLPCGATKILNNGRKLAKPYFDFFNYSGLQRSVWVIALPEESVKDYSVDYELCGTDALVKYEVVTTGEHPVIVRLLDAEGELVAETEGKEGILQVANAHLWEVRNAYLYQIVILITDGNGVLDEYREKIGIRTVRIEGTQILLNDRPVYLKGFGKHEDFSILGRGFHWGIVKRDFECLKWTNANCFRTSHYPYAEEWYQFADEEGFLIIDEVPAVGMMRSTRNFVAAGSGNYTYFFEALTVPELLKSHIADTEEMITRDKNHPSVIAWSLFNEPETITDYAYEYFKEVFAAAETYDFQSRPMTGAFEKNSKPELCKCYPLCDFICLNRYYGWYISGGPEIEEAEELFRDEMDRWKAKELNVPFVFTEFGTDTMAGLHKLPSIMWSEEYQKEYLEMNFRVFDSYEFVQGELAWNFADFQTTEGIMRVDGNHKGVFTRDRQPKAAAVVFKDRWEKKNELF
With B6, in data set [2], the Km is given as 1.4 ± 0.2^b mM, the kcat was 2.8 ± 0.3 s⁻¹ and the kcat/Km is 2000 ± 100 M⁻¹ s⁻¹.

B7: Bacteroides dorei GUS (BdGUS) (Phocaeicola dorei CL02T12C06) (protein)
chain: SEISITDSWKYKAENDERFSSMDWNDSDWVTVDLPHTWNAGDVIDEQRGYRRGISWYRKKLFIPSEARDKKITLRFDGVASKADVYLNGKLLKTHLGAYTAFGVDITDICEVGKENLLAVKVDNSSSLGEILPPVSGDFSIFGGIYRRVFLQWTEKVHFVTEPYAAVPVRIQTPEVSVSEASMQIVAFLKNDFTDTKHVHVNVFLCDEMNRIVKEKQLKLKLIPGRKYPISTSVGRIENPHLWSPELPYLYTVKVQVCDAKNGEMYQEVISPVGFRWFSVDKTGFYLNGKYLKLRGAARHQDYAGLGTAIPVEMNRRDMRLLKEMGANFVRISHYPQDPEIYRACDELGLIVWSEICVVNEVRKNAAFAHNCKEMLKEMILQNYNHPSVVLWGAMNELWDYHKQAIALARELEALKKELDPYRLSCVAFHAFTWEKPYTQSSKEMFSISDVNGVNVYESWYQGDSATIAPMFDKFCSYSTAKPRFLSEFGAGSDERIHSYTPRTFDFTPEFQLDFNRRYINEMEKRPDYIGYSIWNLVDFQVDGRGDSKPNLNQKGMLTEDRRKKEIYYYCQARWSDIPMIHIAGADWTKRVEICDDSINVRKISVFSNQKTVELIHNGKSLGVREVVNGEAVFAVPFINGENLLDARSGALSDRLKIQMKLLSSRLTDSDVLLDGLCINLGQEHCYFIDPQLQEIWIPDKPYTKGSWGYMDGKPFNSWPGSSHDGVRYGVGADIKNTFLEPLFQTFLIGTTCYRLDVPDGVYEIGFYFTEPFSKDERKNIVRTGVSAEGQRVFDVSVNGEKLIDSLNLADSYGEQTAVVKTLVVNVRNHEGLEILLSPQKGQGVISGLKVKKIR
Turning to B7, in data set [1] (optimal pH 6.0, 37 °C), the Km was 1400 ± 100 µM, the kcat turned out to be 7.5 ± 0.4 s⁻¹ and the kcat/Km turned out to be 5200 ± 500 M⁻¹ s⁻¹.
